From publication PMC10238501 come the findings set out here.

What all share (assay): fluorescence anisotropy
On the technique in general: Fluorescence polarisation rises when a labelled molecule tumbles more slowly, as on binding a larger partner.

For data set [1], the target named is Gal4LOV(SK22) (Gal4 DBD with AsLOV2 inserted between Ser22 and Lys23, no VP64) (/ Avena sativa (chimera)) (UniProt P04386). Conditions: 20 mM HEPES pH 7.5, 50 mM NaCl, 50 ug/mL BSA, 5% Ficoll 400, 2 nM DNA, temperature not stated.
Data set [2] deals with Gal4LOV(SK22) I532E/A536E (/ Avena sativa (chimera)) (UniProt P04386). Conditions: dark; 20 mM HEPES pH 7.5, 50 mM NaCl, 50 ug/mL BSA, 5% Ficoll 400; 2 nM DNA; temperature not stated.
For data set [3], the target named is Gal4LOV(SK22) V416L (/ Avena sativa (chimera)) (UniProt P04386). The following applies: 20 mM HEPES pH 7.5, 50 mM NaCl, 50 ug/mL BSA, 5% Ficoll 400; 2 nM DNA; temperature not stated.
Data set [4] deals with Gal4LOV(SK22) C450V (/ Avena sativa (chimera)) (UniProt P04386). Conditions: dark; 20 mM HEPES pH 7.5, 50 mM NaCl, 50 ug/mL BSA, 5% Ficoll 400; 2 nM DNA; temperature not stated.

“And” between values parts separate entries of the source, which are not always exact repeats. Equal values may be shown once.

One may read the Kd as the free concentration of one partner at which half of the binding sites on the other are occupied at equilibrium, for simple one-to-one binding. In the case of “TCTTCGGAGGGCTGTCACCCGAATATA (double strand) [1xUAS 27-bp DNA]”, the Kd in data set [1] is 4.2 nM; in data set [1] (dark) it was 6.4 nM; in data set [2] it was 13.4 nM; in data set [3] it was 8.6 nM and 16.6 nM; in data set [4], 8.8 nM.
